Among the data in PMC11222466 are stoichiometry N values, retold here.

Test [1] deals with PHB-CC_(ΔEA4), PHB-CC variant with A286E287A288 deleted (Staphylococcus aureus). Put plainly: SEC; purified FloA variants at ~60 μM, Superdex 200 Increase 10/300 GL, 300 mM NaCl, 50 mM Tris-HCl pH 8.0, 10% glycerol, 0.02% DDM. On the technique in general: In gel filtration, larger molecules generally elute earlier.
The target in test [2] is Purified native NfeD (Staphylococcus aureus). Put plainly: SEC; purified NfeD variants at ~60 μM, Superdex 75 Increase 10/300 GL, 300 mM NaCl, 50 mM Tris-HCl pH 8.0, 10% glycerol, 0.02% DDM.
Test [3] addresses Purified PHB domain of FloA (Staphylococcus aureus). Put plainly: SEC; purified FloA variants at ~60 μM, Superdex 200 Increase 10/300 GL, 300 mM NaCl, 50 mM Tris-HCl pH 8.0, 10% glycerol, 0.02% DDM.
In test [4] the target is Purified OBL domain of NfeD (Staphylococcus aureus). Put plainly: SEC; purified NfeD variants at ~60 μM, Superdex 75 Increase 10/300 GL, 300 mM NaCl, 50 mM Tris-HCl pH 8.0, 10% glycerol, 0.02% DDM.

As usually defined, the stoichiometry N is the number of molecules, sites or subunits per partner or assembly. Substance “PHB-CC_(ΔEA4), PHB-CC variant with A286E287A288 deleted (domain or fragment)” came in with a stoichiometry N in test [1] of 2.
On to Purified native NfeD (natural protein), for which the stoichiometry N in test [2] was found to be 2.
Substance “Purified PHB domain of FloA (domain or fragment)” registered a stoichiometry N in test [3] of 2.
In test [4], “Purified OBL domain of NfeD (domain or fragment)” returned a stoichiometry N of 2.
